The record followed here is patent US20170145104A1 (Bristol-Myers Squibb, published 2017).

To fix the notation:
T1: human GITR, membrane bound (on activated human T cells and on 3A9-hGITR cells) (human, UniProt Q9Y5U5 26-241)
T1 construct: whole, on cells; the cell is named under assay; also called huGITR; TNFRSF18
T1 sequence (looked up): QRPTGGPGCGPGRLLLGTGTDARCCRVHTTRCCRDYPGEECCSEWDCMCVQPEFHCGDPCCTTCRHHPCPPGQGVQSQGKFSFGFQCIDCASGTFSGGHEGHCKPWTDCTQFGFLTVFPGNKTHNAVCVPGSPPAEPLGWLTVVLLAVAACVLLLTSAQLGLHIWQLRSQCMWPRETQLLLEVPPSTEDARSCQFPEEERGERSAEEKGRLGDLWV

B1: Non mutated 28F3 (control of the VH CDR3 mutant panel) (antibody, V domains shown)
VH: QVQLVESGGGVVQPGRSLRLSCAASGFTFSSYGMHWVRQAPGKGLEWVAVIWYEGSNKYYADSVKGRFTISRDNSKNTLYLQMNSLRAEDTAVYYCARGGSMVRGDYYYGMDVWGQGTTVTVSS
VL: AIQLTQSPSSLSASVGDRVTITCRASQGISSALAWYQQKPGKAPKLLIYDASSLESGVPSRFSGSGSGTDFTLTISSLQPEDFATYYCQQFNSYPYTFGQGTKLEIK
notes: also called H6
B2: 28F3 VH CDR3 mutant M98I, D106E (antibody, V domains shown)
VH: QVQLVESGGGVVQPGRSLRLSCAASGFTFSSYGMHWVRQAPGKGLEWVAVIWYEGSNKYYADSVKGRFTISRDNSKNTLYLQMNSLRAEDTAVYYCARGGSIVRGEYYYGMDVWGQGTTVTVSS
VL: AIQLTQSPSSLSASVGDRVTITCRASQGISSALAWYQQKPGKAPKLLIYDASSLESGVPSRFSGSGSGTDFTLTISSLQPEDFATYYCQQFNSYPYTFGQGTKLEIK
notes: also called C5; M98I/D160E
B3: 28F3 VH CDR3 mutant M98L (antibody, V domains shown)
VH: QVQLVESGGGVVQPGRSLRLSCAASGFTFSSYGMHWVRQAPGKGLEWVAVIWYEGSNKYYADSVKGRFTISRDNSKNTLYLQMNSLRAEDTAVYYCARGGSLVRGDYYYGMDVWGQGTTVTVSS
VL: AIQLTQSPSSLSASVGDRVTITCRASQGISSALAWYQQKPGKAPKLLIYDASSLESGVPSRFSGSGSGTDFTLTISSLQPEDFATYYCQQFNSYPYTFGQGTKLEIK
notes: also called B6
B4: 28F3 VH CDR3 mutant M98Q, D106E, M111F (antibody, V domains shown)
VH: QVQLVESGGGVVQPGRSLRLSCAASGFTFSSYGMHWVRQAPGKGLEWVAVIWYEGSNKYYADSVKGRFTISRDNSKNTLYLQMNSLRAEDTAVYYCARGGSQVRGEYYYGFDVWGQGTTVTVSS
VL: AIQLTQSPSSLSASVGDRVTITCRASQGISSALAWYQQKPGKAPKLLIYDASSLESGVPSRFSGSGSGTDFTLTISSLQPEDFATYYCQQFNSYPYTFGQGTKLEIK
notes: also called D4
B5: 28F3 VH CDR3 mutant M98A, D106E, M111F (antibody, V domains shown)
VH: QVQLVESGGGVVQPGRSLRLSCAASGFTFSSYGMHWVRQAPGKGLEWVAVIWYEGSNKYYADSVKGRFTISRDNSKNTLYLQMNSLRAEDTAVYYCARGGSAVRGEYYYGFDVWGQGTTVTVSS
VL: AIQLTQSPSSLSASVGDRVTITCRASQGISSALAWYQQKPGKAPKLLIYDASSLESGVPSRFSGSGSGTDFTLTISSLQPEDFATYYCQQFNSYPYTFGQGTKLEIK
notes: also called F4
B6: 28F3 VH CDR3 mutant M98Q, D106E (antibody, V domains shown)
VH: QVQLVESGGGVVQPGRSLRLSCAASGFTFSSYGMHWVRQAPGKGLEWVAVIWYEGSNKYYADSVKGRFTISRDNSKNTLYLQMNSLRAEDTAVYYCARGGSQVRGEYYYGMDVWGQGTTVTVSS
VL: AIQLTQSPSSLSASVGDRVTITCRASQGISSALAWYQQKPGKAPKLLIYDASSLESGVPSRFSGSGSGTDFTLTISSLQPEDFATYYCQQFNSYPYTFGQGTKLEIK
notes: also called D5
B7: 28F3 VH CDR3 mutant M98A, D106E (antibody, V domains shown)
VH: QVQLVESGGGVVQPGRSLRLSCAASGFTFSSYGMHWVRQAPGKGLEWVAVIWYEGSNKYYADSVKGRFTISRDNSKNTLYLQMNSLRAEDTAVYYCARGGSAVRGEYYYGMDVWGQGTTVTVSS
VL: AIQLTQSPSSLSASVGDRVTITCRASQGISSALAWYQQKPGKAPKLLIYDASSLESGVPSRFSGSGSGTDFTLTISSLQPEDFATYYCQQFNSYPYTFGQGTKLEIK
notes: also called F5
B8: 28F3 VH CDR3 mutant M98S (antibody, V domains shown)
VH: QVQLVESGGGVVQPGRSLRLSCAASGFTFSSYGMHWVRQAPGKGLEWVAVIWYEGSNKYYADSVKGRFTISRDNSKNTLYLQMNSLRAEDTAVYYCARGGSSVRGDYYYGMDVWGQGTTVTVSS
VL: AIQLTQSPSSLSASVGDRVTITCRASQGISSALAWYQQKPGKAPKLLIYDASSLESGVPSRFSGSGSGTDFTLTISSLQPEDFATYYCQQFNSYPYTFGQGTKLEIK
notes: also called E6
B9: 28F3 VH CDR3 mutant M98F, D106E, M111F (antibody, V domains shown)
VH: QVQLVESGGGVVQPGRSLRLSCAASGFTFSSYGMHWVRQAPGKGLEWVAVIWYEGSNKYYADSVKGRFTISRDNSKNTLYLQMNSLRAEDTAVYYCARGGSFVRGEYYYGFDVWGQGTTVTVSS
VL: AIQLTQSPSSLSASVGDRVTITCRASQGISSALAWYQQKPGKAPKLLIYDASSLESGVPSRFSGSGSGTDFTLTISSLQPEDFATYYCQQFNSYPYTFGQGTKLEIK
notes: also called B4
B10: 28F3 VH CDR3 mutant M98L, D106E, M111F (antibody, V domains shown)
VH: QVQLVESGGGVVQPGRSLRLSCAASGFTFSSYGMHWVRQAPGKGLEWVAVIWYEGSNKYYADSVKGRFTISRDNSKNTLYLQMNSLRAEDTAVYYCARGGSLVRGEYYYGFDVWGQGTTVTVSS
VL: AIQLTQSPSSLSASVGDRVTITCRASQGISSALAWYQQKPGKAPKLLIYDASSLESGVPSRFSGSGSGTDFTLTISSLQPEDFATYYCQQFNSYPYTFGQGTKLEIK
notes: also called C4
B11: 28F3 VH CDR3 mutant M98F, D106E (antibody, V domains shown)
VH: QVQLVESGGGVVQPGRSLRLSCAASGFTFSSYGMHWVRQAPGKGLEWVAVIWYEGSNKYYADSVKGRFTISRDNSKNTLYLQMNSLRAEDTAVYYCARGGSFVRGEYYYGMDVWGQGTTVTVSS
VL: AIQLTQSPSSLSASVGDRVTITCRASQGISSALAWYQQKPGKAPKLLIYDASSLESGVPSRFSGSGSGTDFTLTISSLQPEDFATYYCQQFNSYPYTFGQGTKLEIK
notes: also called A5
B12: 28F3 VH CDR3 mutant M98F (antibody, V domains shown)
VH: QVQLVESGGGVVQPGRSLRLSCAASGFTFSSYGMHWVRQAPGKGLEWVAVIWYEGSNKYYADSVKGRFTISRDNSKNTLYLQMNSLRAEDTAVYYCARGGSFVRGDYYYGMDVWGQGTTVTVSS
VL: AIQLTQSPSSLSASVGDRVTITCRASQGISSALAWYQQKPGKAPKLLIYDASSLESGVPSRFSGSGSGTDFTLTISSLQPEDFATYYCQQFNSYPYTFGQGTKLEIK
notes: also called A6
B13: 28F3 VH CDR3 mutant M98S, D106E (antibody, V domains shown)
VH: QVQLVESGGGVVQPGRSLRLSCAASGFTFSSYGMHWVRQAPGKGLEWVAVIWYEGSNKYYADSVKGRFTISRDNSKNTLYLQMNSLRAEDTAVYYCARGGSSVRGEYYYGMDVWGQGTTVTVSS
VL: AIQLTQSPSSLSASVGDRVTITCRASQGISSALAWYQQKPGKAPKLLIYDASSLESGVPSRFSGSGSGTDFTLTISSLQPEDFATYYCQQFNSYPYTFGQGTKLEIK
notes: also called E5
B14: 28F3 VH CDR3 mutant M98Q (antibody, V domains shown)
VH: QVQLVESGGGVVQPGRSLRLSCAASGFTFSSYGMHWVRQAPGKGLEWVAVIWYEGSNKYYADSVKGRFTISRDNSKNTLYLQMNSLRAEDTAVYYCARGGSQVRGDYYYGMDVWGQGTTVTVSS
VL: AIQLTQSPSSLSASVGDRVTITCRASQGISSALAWYQQKPGKAPKLLIYDASSLESGVPSRFSGSGSGTDFTLTISSLQPEDFATYYCQQFNSYPYTFGQGTKLEIK
notes: also called D6
B15: 28F3 VH CDR3 mutant M98I (antibody, V domains shown)
VH: QVQLVESGGGVVQPGRSLRLSCAASGFTFSSYGMHWVRQAPGKGLEWVAVIWYEGSNKYYADSVKGRFTISRDNSKNTLYLQMNSLRAEDTAVYYCARGGSIVRGDYYYGMDVWGQGTTVTVSS
VL: AIQLTQSPSSLSASVGDRVTITCRASQGISSALAWYQQKPGKAPKLLIYDASSLESGVPSRFSGSGSGTDFTLTISSLQPEDFATYYCQQFNSYPYTFGQGTKLEIK
notes: also called C6
B16: 28F3 VH CDR3 mutant M98L, D106E (antibody, V domains shown)
VH: QVQLVESGGGVVQPGRSLRLSCAASGFTFSSYGMHWVRQAPGKGLEWVAVIWYEGSNKYYADSVKGRFTISRDNSKNTLYLQMNSLRAEDTAVYYCARGGSLVRGEYYYGMDVWGQGTTVTVSS
VL: AIQLTQSPSSLSASVGDRVTITCRASQGISSALAWYQQKPGKAPKLLIYDASSLESGVPSRFSGSGSGTDFTLTISSLQPEDFATYYCQQFNSYPYTFGQGTKLEIK
notes: also called B5
B17: 28F3 VH CDR3 mutant M98A (antibody, V domains shown)
VH: QVQLVESGGGVVQPGRSLRLSCAASGFTFSSYGMHWVRQAPGKGLEWVAVIWYEGSNKYYADSVKGRFTISRDNSKNTLYLQMNSLRAEDTAVYYCARGGSAVRGDYYYGMDVWGQGTTVTVSS
VL: AIQLTQSPSSLSASVGDRVTITCRASQGISSALAWYQQKPGKAPKLLIYDASSLESGVPSRFSGSGSGTDFTLTISSLQPEDFATYYCQQFNSYPYTFGQGTKLEIK
notes: also called F6
B18: 28F3 VH CDR3 mutant M98Y, M111L (antibody, V domains shown)
VH: QVQLVESGGGVVQPGRSLRLSCAASGFTFSSYGMHWVRQAPGKGLEWVAVIWYEGSNKYYADSVKGRFTISRDNSKNTLYLQMNSLRAEDTAVYYCARGGSYVRGDYYYGLDVWGQGTTVTVSS
VL: AIQLTQSPSSLSASVGDRVTITCRASQGISSALAWYQQKPGKAPKLLIYDASSLESGVPSRFSGSGSGTDFTLTISSLQPEDFATYYCQQFNSYPYTFGQGTKLEIK
notes: also called H1
B19: 28F3 VH CDR3 mutant M98Y, M111F (antibody, V domains shown)
VH: QVQLVESGGGVVQPGRSLRLSCAASGFTFSSYGMHWVRQAPGKGLEWVAVIWYEGSNKYYADSVKGRFTISRDNSKNTLYLQMNSLRAEDTAVYYCARGGSYVRGDYYYGFDVWGQGTTVTVSS
VL: AIQLTQSPSSLSASVGDRVTITCRASQGISSALAWYQQKPGKAPKLLIYDASSLESGVPSRFSGSGSGTDFTLTISSLQPEDFATYYCQQFNSYPYTFGQGTKLEIK
notes: also called H2
B20: 28F3 VH CDR3 mutant M98Y, D106E, M111L (antibody, V domains shown)
VH: QVQLVESGGGVVQPGRSLRLSCAASGFTFSSYGMHWVRQAPGKGLEWVAVIWYEGSNKYYADSVKGRFTISRDNSKNTLYLQMNSLRAEDTAVYYCARGGSYVRGEYYYGLDVWGQGTTVTVSS
VL: AIQLTQSPSSLSASVGDRVTITCRASQGISSALAWYQQKPGKAPKLLIYDASSLESGVPSRFSGSGSGTDFTLTISSLQPEDFATYYCQQFNSYPYTFGQGTKLEIK
notes: also called H3

In the first test the target is T1, human GITR, membrane bound (on …). The test is described as follows: FACS binding to 3A9-hGITR transfectant, Geo-MFI (PE); EC50 table beside the curves; unit from the axis. On the technique in general: Flow cytometry measures light scatter and fluorescence of single cells or particles in a stream.
For the molecule B1, the response was half-maximal at 0.334 nM (EC50).
With B2, the EC50 was found to be 0.349 nM.
For the molecule B3, the response was half-maximal at 0.757 nM (EC50).
B4 showed an EC50 of 3.33 nM.
B5 displayed an EC50 of 19.1 nM.
With B6, the EC50 turned out to be 0.968 nM.
B7 registered an EC50 of 0.401 nM.
The same measure, in the same setting: the figure for B8 is 3.51 nM.
B9: the EC50 is 54 nM.
In the case of B10, the midpoint of the response, the EC50, lay at 0.638 nM.
Consider B11, for which the EC50 came to 0.683 nM.
Still for that read-out and setting: with B12 the figure was 0.797 nM; with B13, 2.29 nM.
The molecule B14 came in with an EC50 of 1.44 nM.
Turning to B15, the response was half-maximal at 1.42 nM (EC50).
As for B16, the EC50 was found to be 0.311 nM.
B17 registered an EC50 of 1.5 nM.

For the next test the target is unchanged. Described as above. This is another data set of the same source.
On to B18, for which a half-maximal response (EC50) required 620 nM.
B19 registered an EC50 of 246 nM.
Still for that read-out and setting: with B20 the figure was 183 nM.

Usually EC50 stands for the concentration at which the effect is half-maximal. Low values mean a more potent agent, high ones a less potent agent.
